Data reported in the array DNA melting data of Ke et al..

Experiment: melting temperature; melt of duplexes
Details: sodium 0.0675 M; strand 1 µM

| Substance | Tm [°C] |
| --- | --- |
| CGACGTGCAGCATGTGCTG+CAGCACATTTGGCACGTCG ((((((((...((((((((+))))))))...)))))))) | 45.4 |
| CGACGTGCAAGATGTGCTG+CAGCACATAGCGCACGTCG ((((((((...((((((((+))))))))...)))))))) | 49.8 |
| CGACGTGCGAGATGTGCTG+CAGCACATTATGCACGTCG ((((((((...((((((((+))))))))...)))))))) | 51.6 |
| CGACGTGCTACATGTGCTG+CAGCACATCCCGCACGTCG ((((((((...((((((((+))))))))...)))))))) | 47.4 |
| CGACGTGCTCGATGTGCTG+CAGCACATGCAGCACGTCG (((((((((..((((((((+))))))))..))))))))) | 52.1 |
| CGACGTGCTCTATGTGCTG+CAGCACATGGAGCACGTCG ((((((((((.((((((((+)))))))).)))))))))) | 59.7 |
| CGACGTGCCCGATGTGCTG+CAGCACATGCCGCACGTCG ((((((((...((((((((+))))))))...)))))))) | 48.1 |
| CGACGTGCCGTATGTGCTG+CAGCACATGGGGCACGTCG (((((((((..((((((((+))))))))..))))))))) | 57.1 |
| CGACGTGCGTGATGTGCTG+CAGCACATTGAGCACGTCG ((((((((...((((((((+))))))))...)))))))) | 54.7 |
| CGACGTGCCCGATGTGCTG+CAGCACATTATGCACGTCG ((((((((...((((((((+))))))))...)))))))) | 48.4 |
| CGACGTGCGGGATGTGCTG+CAGCACATATAGCACGTCG ((((((((...((((((((+))))))))...)))))))) | 52.8 |
| CGACGTGCCAAATGTGCTG+CAGCACATTACGCACGTCG ((((((((..(((((((((+)))))))))..)))))))) | 50.5 |
| CGACGTGCATCATGTGCTG+CAGCACATACTGCACGTCG (((((((((..((((((((+))))))))..))))))))) | 49.7 |
| CGACGTGCAGAATGTGCTG+CAGCACATGACGCACGTCG ((((((((...((((((((+))))))))...)))))))) | 53.1 |
| CGACGTGCTGTATGTGCTG+CAGCACATCAGGCACGTCG ((((((((...((((((((+))))))))...)))))))) | 51.7 |
| CGACGTGCTATATGTGCTG+CAGCACATATAGCACGTCG (((((((((((((((((((+))))))))))))))))))) | 61.3 |
| CGACGTGCCGGATGTGCTG+CAGCACATGGAGCACGTCG ((((((((...((((((((+))))))))...)))))))) | 51 |
| CGACGTGCGTTATGTGCTG+CAGCACATCCTGCACGTCG ((((((((...((((((((+))))))))...)))))))) | 49.2 |
| CGACGTGCAGAATGTGCTG+CAGCACATAAGGCACGTCG ((((((((...((((((((+))))))))...)))))))) | 51 |
| CGACGTGCCGAATGTGCTG+CAGCACATTAGGCACGTCG (((((((((.(((((((((+))))))))).))))))))) | 59.6 |
| CGACGTGCCCCATGTGCTG+CAGCACATGATGCACGTCG ((((((((..(((((((((+)))))))))..)))))))) | 51.8 |
| CGACGTGCGGCATGTGCTG+CAGCACATGACGCACGTCG (((((((((.(((((((((+))))))))).))))))))) | 64 |
| CGACGTGCTATATGTGCTG+CAGCACATAAGGCACGTCG ((((((((..(((((((((+)))))))))..)))))))) | 52.5 |
| CGACGTGCCGCATGTGCTG+CAGCACATCTTGCACGTCG ((((((((...((((((((+))))))))...)))))))) | 47.4 |
| CGACGTGCGGCATGTGCTG+CAGCACATAGTGCACGTCG ((((((((...((((((((+))))))))...)))))))) | 45.9 |
| CGACGTGCTGTATGTGCTG+CAGCACATTCAGCACGTCG ((((((((((.((((((((+)))))))).)))))))))) | 57.5 |

| Substance | Tm [°C] |
| --- | --- |
| CGACGTGCGTGATGTGCTG+CAGCACATGGGGCACGTCG ((((((((...((((((((+))))))))...)))))))) | 51.2 |
| CGACGTGCTATATGTGCTG+CAGCACATACGGCACGTCG ((((((((..(((((((((+)))))))))..)))))))) | 50.7 |
| CGACGTGCCCAATGTGCTG+CAGCACATCTGGCACGTCG (((((((((..((((((((+))))))))..))))))))) | 53.8 |
| CGACGTGCTGAATGTGCTG+CAGCACATCAGGCACGTCG ((((((((...((((((((+))))))))...)))))))) | 53.5 |
| CGACGTGCGTTATGTGCTG+CAGCACATAGAGCACGTCG ((((((((..(((((((((+)))))))))..)))))))) | 54.6 |
| CGACGTGCAAGATGTGCTG+CAGCACATCTAGCACGTCG ((((((((.((((((((((+)))))))))).)))))))) | 57.9 |
| CGACGTGCCACATGTGCTG+CAGCACATTCCGCACGTCG ((((((((...((((((((+))))))))...)))))))) | 47.1 |
| CGACGTGCGCAATGTGCTG+CAGCACATCTAGCACGTCG ((((((((...((((((((+))))))))...)))))))) | 51.8 |
| CGACGTGCAGAATGTGCTG+CAGCACATCACGCACGTCG ((((((((...((((((((+))))))))...)))))))) | 50.1 |
| CGACGTGCATAATGTGCTG+CAGCACATATCGCACGTCG ((((((((...((((((((+))))))))...)))))))) | 48.6 |
| CGACGTGCCCCATGTGCTG+CAGCACATACAGCACGTCG ((((((((...((((((((+))))))))...)))))))) | 47.1 |
| CGACGTGCACTATGTGCTG+CAGCACATGGTGCACGTCG ((((((((((.((((((((+)))))))).)))))))))) | 56.6 |
| CGACGTGCTATATGTGCTG+CAGCACATGTCGCACGTCG ((((((((.(.((((((((+)))))))).).)))))))) | 51.4 |
| CGACGTGCCCTATGTGCTG+CAGCACATTTGGCACGTCG (((((((((..((((((((+))))))))..))))))))) | 54.1 |
| CGACGTGCCATATGTGCTG+CAGCACATCAAGCACGTCG ((((((((...((((((((+))))))))...)))))))) | 48.6 |
| CGACGTGCGAGATGTGCTG+CAGCACATGGTGCACGTCG ((((((((...((((((((+))))))))...)))))))) | 48.5 |
| CGACGTGCTGTATGTGCTG+CAGCACATTTAGCACGTCG (((((((((..((((((((+))))))))..))))))))) | 51.5 |
| CGACGTGCACCATGTGCTG+CAGCACATGAGGCACGTCG ((((((((..(((((((((+)))))))))..)))))))) | 53.9 |
| CGACGTGCTTGATGTGCTG+CAGCACATGAAGCACGTCG ((((((((((.((((((((+)))))))).)))))))))) | 56.6 |
| CGACGTGCAATATGTGCTG+CAGCACATTGTGCACGTCG (((((((((..((((((((+))))))))..))))))))) | 49.1 |
| CGACGTGCAAGATGTGCTG+CAGCACATGTCGCACGTCG ((((((((.(.((((((((+)))))))).).)))))))) | 51.3 |
| CGACGTGCTGTATGTGCTG+CAGCACATAGAGCACGTCG (((((((((.(((((((((+))))))))).))))))))) | 55.9 |
| CGACGTGCCTGATGTGCTG+CAGCACATATGGCACGTCG (((((((((..((((((((+))))))))..))))))))) | 55.8 |
| CGACGTGCGAAATGTGCTG+CAGCACATCTGGCACGTCG ((((((((.(.((((((((+)))))))).).)))))))) | 50.6 |
| CGACGTGCCACATGTGCTG+CAGCACATACTGCACGTCG ((((((((...((((((((+))))))))...)))))))) | 47.2 |
| CGACGTGCGGGATGTGCTG+CAGCACATAGCGCACGTCG (((((((((..((((((((+))))))))..))))))))) | 57.4 |
